{"source": "paper PMC3158961", "origin": "cited, not measured here", "key": {"[1]": {"biological_target": "CEP55 (Homo sapiens) (UniProt Q53EZ4)", "sequence (Q53EZ4 whole entry)": "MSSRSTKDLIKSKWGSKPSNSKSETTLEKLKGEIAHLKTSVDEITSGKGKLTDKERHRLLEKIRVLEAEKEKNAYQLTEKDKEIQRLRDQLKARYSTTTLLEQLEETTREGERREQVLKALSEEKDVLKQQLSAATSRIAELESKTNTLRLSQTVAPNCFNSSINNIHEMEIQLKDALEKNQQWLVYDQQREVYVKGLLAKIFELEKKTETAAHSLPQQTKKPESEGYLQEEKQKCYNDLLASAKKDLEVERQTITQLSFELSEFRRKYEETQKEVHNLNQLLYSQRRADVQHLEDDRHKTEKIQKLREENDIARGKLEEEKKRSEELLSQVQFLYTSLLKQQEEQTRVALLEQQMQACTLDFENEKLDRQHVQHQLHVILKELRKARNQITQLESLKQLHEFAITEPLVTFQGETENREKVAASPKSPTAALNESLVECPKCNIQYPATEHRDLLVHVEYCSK"}, "[2]": {"biological_target": "Nedd4 WW3 (UniProt P46934)", "sequence (P46934 840-873)": "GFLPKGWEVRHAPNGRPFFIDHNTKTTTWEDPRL"}, "[3]": {"biological_target": "CEP55 (Homo sapiens) (UniProt Q53EZ4)", "remark": "listed apart in the source"}}, "note": "Where two headings read alike, the source gives them in different places."}
{"substance": "ALIX GPPX3Y peptide (from UniProt Q8WUM4)", "values": [{"measurement": "Kd", "setting": "[1]", "result": 1, "unit": "µM"}]}
{"substance": "ENaC β subunit PPXY peptide (from UniProt P51168)", "values": [{"measurement": "Kd", "setting": "[2]", "result": 20, "unit": "µM"}]}
{"substance": "TSG101 GPPX3Y peptide (from UniProt Q99816)", "values": [{"measurement": "Kd", "setting": "[3]", "result": 1, "unit": "µM"}]}
